assay: soluble fraction after stress (log2 fold change); higher = more stays soluble; pooled small domains, quantitative proteomics; settings: stress: pH 4
Method in brief: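 Aggregation propensity is estimated from the fold change in each domain's soluble amount after acid stress. Pooled small-domain libraries were stressed at pH 4, and higher log2 values mean more stayed soluble.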

Row | Sequence | soluble fraction (log2)
1 | HMGGPAGPDFTYTGDDLTRIDYDDGSYKVFTYDAGKLSQIDFTSGGTTTRKTFVYSGDTLIRVDQTI | -1.43
2 | HMGGPEPIPAQIREGDTVYVTKFKQLGLVLKISEDTAEVQIGPLRATVAKTELSKVDATATEHR | -0.0107
3 | HMGGQFVKVEVIAQIFGVTVRRVQQLTQEGVVKTTEIPGEGRRYELVPTIKTYIQYLSDKAY | 0.0375
4 | HMGGTFLVRILDPALNIRAQPSLTARINGVIRDKSVYTIVATSFEPKTQITWGKLKSGAGWISIGSKYVKK | 0.0406
5 | HMGGVTVQNRETHVNSTVNVRSEQTTESERVALAYQGDAITQIESYENGWSKVEYKGLSGYVMTEYL | -0.819
6 | HMGGYLIGDVAQMVGLSRDALRFYEKKGIIRADKKENGYRYYSEDDIYRLMYILYHRKMNTSLEEIGGLMS | -0.478
7 | HMGHKKLTIELQDEIIVLPKELEKYNLTVSDDKTSLIYTYKSRGEKTGITDLLRDIKDAGLRLKDLITEQ | -0.0229
8 | HMGHTVHAVPEAADRQRLDVFVGNLHPTISRAYIQKLSKEDQILVNGKPEKAGFKLRTGHSVSVPDMSE | 0.177
9 | HMGIAEAKRVIVRTLHDVLGPEADFLTEKIDVAQTAAELRVHAEKYRDMLVDMGKPKKSAAFWEAFEAALP | -0.65
10 | HMGIAKLLTEQEYKIALLAAERRTNAMIAEEMNLTENTVKTHLKHIFDKVGIAGNAKNKRHLLADMMNSER | 0.0405
11 | HMGIDISAFSETALQVLRLQAAGYTAKEISEKLHITPRTVKYHASQNYRKLDAKNLVDAVQIAQALHI | -0.171
12 | HMGIEQVELASRVRDAVDSLPHHLREIILLSYFQKMSYNQIAETLQVPLGTVKSRLHAAVASFAQAWTQSS | -0.658
13 | HMGIFAQTTKWRDIYTVKKKDTIFGIANKYGLSLPELMEANPEMKQEGYMLQKGTTLFIPFASD | -0.0354
14 | HMGIGSTLTDGVRVYASDDEIVVNAPAESDVRIFNAGGAQLYAGRVADVRVAVAKGLYVVTVDGRSTKITV | 0.217
15 | HMGIILDWELFEQFADKLKRKKVDFVIEPYLRFEGRRGEQSTLFIKDPSGNYLEFKAFKNIDMLFEK | -1.38
16 | HMGIPIEAYHESLHRHYIDLWELLDTGKETLIDAEGNEVDKIHLLNAIRFNVNGMLHELLKE | -1.48
17 | HMGIQYVASGHYARMETDAQGVSRLFPPESGAPDESDRLAALSPEVLTRLILPLGDFAPEDVEEMAVD | -0.294
18 | HMGIRAFDPEAFDERLKEFFSMIAPYKKLDTRSLQPHFPHHAKEVAERIRQLAEAGKIKVDGFYISEL | -0.0943
19 | HMGIRDIHITVNGESLKLSKKQNYIFVDIFDFYPFDLSILGGSKLITTINGEQAEFTSPLKDGDVVELYWK | -0.977

Row | Sequence | soluble fraction (log2)
20 | HMGISNEETFLLEKMSSGRRYSRKELDNLMGFEKTKTIRLLGSLINKGLVVAEGVNRARRYIR | -0.00925
21 | HMGISQAQAMQALRKLIEEEDKHTPLSDQTLMERLKAAGIPLARRTIAKYRESLGIPSAAQRK | -0.0327
22 | HMGISVEVPDLKNMSVAEAGSLLKNSGLSYAVVDSDYVKTISPGKILDQNPGRGLRVKKGRIVYLTINSL | -0.283
23 | HMGITDHIYQDLKKRLENGNYPAGTRFPSESTLADEFSVNKMTMNKIVSMLAEQGYLIRGNRGAGTRVAEN | -0.0244
24 | HMGITPSIEMILEYFAFKESSETEANKFFNYYSSIGWLVGGKTKMKDWKASARNWIMNQNKFQ | -1.01
25 | HMGIVAPGTLKHLHAVGNSYYPDWETKRHELVTAVTKGRTSSSKELYEAEANRLITRIEELLMTAAQSV | -0.548
26 | HMGIVTMPGQGSKMRFDFDATGDLPSSTSWRGMFAYANNTKRAYVSTGTTMGGYNGWRQLIAMDEYGNYQT | 0.22
27 | HMGKEIEAPDFKNMTLKEAKIAAKEYKIRIKKGDEVVSEEVEKGRIVSQDPDAGTTIKTGSTVTVNISKGL | 0.0135
28 | HMGKELSTVVVPDLTGLSVLEARNVLTKVGLQLTPSGAGIAFKQIPTPGTRLTLGATVTVYFVATGY | -1.27
29 | HMGKELTVPDVVGQNYVSAQEKLIAGGFQVEVADSVYDSRYGRGVVVDQNPHKDTRVKPGRLIYVTVNA | 0.0611
30 | HMGKEWPTPDNVEEWKKLVKKARLWPIQADQAQSEETRERNRKKWELFVAYAKRFGYRAGIGETGKPFVNN | 0.164
31 | HMGKINEIVANNIAILRKKNRLSLEELGKLSGVSKSMLALIEKGDGNPTLGILWKIANGLGVPFDELTRRP | 0.0455
32 | HMGKLGENIKRIREGMGLSQRQFGELIGKSDSQIWSYENDRTDILASTLYKIAAVANVDFNNLMAGIIP | -1.35
33 | HMGKLYRDRYAPLEPDGARAGDRVFIISLEKEGTLERIDLPRKTATVLLGSSIRSTFPLDDLYQPRG | -0.163
34 | HMGKMTSTLGVHIAAYRKEHGETVAQFASRSGVSVSSIRRIESGISDPSADLVWKISRHMGMTMDDLFKKM | -0.0972
35 | HMGKNISEEDMLGYFKKIDLDYDAETKEVIAPTFRHDLFRLADLAEEVARFFGYDNIPTTLPSGEAT | -0.488
36 | HMGKPAGLIRELGNHPEDEKPVTLNNGRFGPYVKHGKVMASLTKADSPDDITFDRAIELIAIKAEKMAAKG | -0.00901
37 | HMGKPTPASQVATRWLTGNLPESLPVAGPAPSFEALARTVSTDLHPRSVLQELVRLGVAEEANGVVTLRRQ | -0.0399

Reference: the domain aggregation screens of Martell et al. (2025)
